Assay results as given in US20150125463A1 (Bristol-Myers Squibb, published 2015).

Experiments:
[1] = target: T1, human PD-L1 (on cells or in tissue) (human, UniProt Q9NZQ7 19-290); assay: competition flow cytometry on ES-2 cells: unlabeled Ab titrated, then biotin-12A4 at 0.4 ug/mL, streptavidin-PE
T1 construct: whole, on cells; also called hPD-L1; Programmed Death Ligand-1

[2] = target: T1, human PD-L1 (on cells or in tissue); assay: flow cytometry competition on CHO/PD-L1 cells; unlabeled mAb at 10 ug/ml
Excerpt: (§1) Different quantities of the various FITC-conjugated HuMAbs were used due to differences in binding efficiency following labeling, and the optimal amounts of these FITC-conjugated HuMAbs were previously determined by dose-titration analysis of binding to CHO/PD-L1 cells.

human PD-1 [3] = target: T2, human PD-1 (human, UniProt Q15116 25-288); assay: flow cytometry on CHO/PD-1 cells pre-incubated with 10 ug/mL hIgG1 control, 2D3 at 0.2 ug/mL, detection with FITC goat anti-hIgG Fc
T2 construct: whole, on cells; also called hPD-1; Programmed Death-1

human PD-1 [4] = target: T2, human PD-1; assay: flow cytometry on CHO/PD-1 cells pre-incubated with 10 ug/mL hIgG1 control, 7D3 at 0.2 ug/mL, detection with FITC goat anti-hIgG Fc
human PD-1 [5] = target: T2, human PD-1; assay: flow cytometry on CHO/PD-1 cells pre-incubated with 10 ug/mL hIgG1 control, 4H1 at 0.2 ug/mL, detection with FITC goat anti-hIgG Fc
human PD-1 [6] = target: T2, human PD-1; assay: flow cytometry on CHO/PD-1 cells pre-incubated with hIgG control, FITC-labeled 17D8
[7] = target: T1, human PD-L1 (on cells or in tissue); assay: flow cytometry on CHO/PD-L1 cells pre-incubated with 10 ug/mL hIgG1, FITC-10H10 at 0.27 ug/mL
Excerpt: as §1

B1: anti-PD-L1 HuMAb 1B12 (antibody, V domains shown)
VH: QVQLVQSGAEVKKPGSSVKVSCKTSGDTFSSYAISWVRQAPGQGLEWMGGIIPIFGRAHYAQKFQGRVTITADESTSTAYMELSSLRSEDTAVYFCARKFHFVSGSPFGMDVWGQGTTVTVSS
VL: not shown
notes: Human mAb
B1 was tested, and the “IC50 (read off the curve)” value [1] was ~0.2 nM.

B2: anti-PD-L1 HuMAb 7H1 (antibody, V domains shown)
VH: QVQLVQSGAEVKKPGSSVKVSCKTSGGTFSSYAISWVRQAPGQGLEWMGGIIPIFGKAHYAQKFQGRVTITADESTTTAYMELSSLRSEDTAVYYCARKYDYVSGSPFGMDVWGQGTTVTVSS
VL: not shown
notes: Human mAb
B2: binds [2].

B3: anti-PD-1 HuMAb 2D3 (antibody, V domains shown)
VH: QVQLVESGGDVVQPGRSLRLSCAASGLTFTNYGFHWVRQAPGKGLEWVAVIWYDGSKKYYADSVKGRFTISRDNSKNTLYLQMNNLRAEDTAVYYCATGDDYWGQGTLVTVSS
VL: EIVLTQSPATLSLSPGERATLSCRASQSVSSYLAWYQQKPGQAPRLLIYDTSNRATGIPARFSGSGSGTDFTLTISSLEPEDFAVYYCQQRSNWPLTFGGGTKVEIK
notes: Human mAb
B3: binds (human PD-1 [3]).

B4: anti-PD-1 HuMAb 7D3 (antibody, V domains shown)
VH: QVQLVESGGGVVQPGRSLRLSCTTSGITFSSYGFHWVRQAPGKGLEWVAVIWYDGSKKYYADSVKGRFTLSRDDSKNTLYLQMNSLRAEDTAVYYCVTGDDYWGQGTLVTVSS
VL: EIVLTQSPATLSLSPGERATLSCRASQSVSSYLAWYQQKPGQAPRLLIYDASNRATGIPARFSGSGSGTDFTLTISSLEPEDFAVYYCQQRSNWPLTFGGGTKVEIK
notes: Human mAb
B4: binds (human PD-1 [4]).

B5: anti-PD-L1 HuMAb 3G10 (antibody, V domains shown)
VH: QVQLVQSGAEVKKPGASVKVSCKASGYTFTDYGFSWVRQAPGQGLEWMGWITAYNGNTNYAQKLQGRVTMTTDTSTSTVYMELRSLRSDDTAVYYCARDYFYGMDVWGQGTTVTVSS
VL: EIVLTQSPATLSLSPGERATLSCRASQSVSSYLVWYQQKPGQAPRLLIYDASNRATGIPARFSGSGSGTDFTLTISSLEPEDFAVYYCQQRSNWPRTFGQGTKVEIK
notes: Human mAb; Used unconjugated and FITC-conjugated
In the case of B5, the “IC50 (read off the curve)” value [1] is reported as ~0.9 nM.

B6: anti-PD-L1 HuMAb 10A5 (antibody, V domains shown)
VH: QVQLVQSGAEVKKPGASVKVSCKASGYTFTSYDVHWVRQAPGQRLEWMGWLHADTGITKFSQKFQGRVTITRDTSASTAYMELSSLRSEDTAVYYCARERIQLWFDYWGQGTLVTVSS
VL: DIQMTQSPSSLSASVGDRVTITCRASQGISSWLAWYQQKPEKAPKSLIYAASSLQSGVPSRFSGSGSGTDFTLTISSLQPEDFATYYCQQYNSYPYTFGQGTKLEIK
notes: as for B5
B6: binds [1].

B7: anti-PD-1 HuMAb 4H1 (antibody, V domains shown)
VH: QVYLVESGGGVVQPGRSLRLSCAASGFTFSNYGMHWVRQAPGKGLEWVALIWYDGSNKYYADSVKGRFTISRDNSKNTLYLQMTSLRVEDTAVYYCASNVDHWGQGTLVTVSS
VL: EIVLTQSPATLSLSPGERATLSCRASQSVSSYLAWYQQKPGQAPRLLIYDASNRATGIPARFSGSGSGTDFTLTISSLEPEDFAVYYCQQSSNWPRTFGQGTKVEIK
notes: Human mAb
B7: binds (human PD-1 [5]).

B8: anti-PD-1 HuMAb 17D8 (antibody, V domains shown)
VH: QVQLVESGGDVVQPGGSLRLSCAASGVAFSNYGMHWVRQAPGKGLEWVAVIWYDGSNKYYADSVKGRFTISRDNSKNMLYLQMNSLRAEDTAMYYCARNDDYWGQGTLVTVSS
VL: EIVLTQSPATLSLSPGERATLSCRASQSVSSYLAWYQQKPGQAPRLIIYDASNRATGIPARFSGSGSGTDFTLTISSLEPEDFAVYYCQQRSNWPLTFGGGTKVEIK
notes: Human mAb; also called FITC-labeled 17D8
B8: binds (human PD-1 [6]).

B9: anti-PD-L1 HuMAb 10H10 (antibody, V domains shown)
VH: EVQLVESGGGLVQPGRSLRLSCAVSGFTFDDYVVHWVRQAPGKGLEWVSGISGNSGNIGYADSVKGRFTISRDNAKNSLYLQMNSLRAEDTALYYCAVPFDYWGQGTLVTVSS
VL: DIQMTQSPSSLSASVGDRVTITCRASQGISSWLAWYQQKPEKAPKSLIYAASSLQSGVPSRFSGSGSGTDFTLTISSLQPEDFATYYCQQYNSYPYTFGQGTKLEIK
notes: as for B5
B9: binds [7].
